Test results: the nanobody polyreactivity screen of Harvey et al. (2022)

Assay: yeast display, Sf9 membrane polyspecificity reagent, FACS + sequencing; frameworks hold sequencing errors
In short: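 Using colony PCR, genes from sorted yeast display clones were amplified, then sequenced on MiSeq at 2 × 250 and filtered by CDR length. The clones had been stained with 10% biotinylated, detergent-solubilized Sf9 membrane reagent for 1 hour at 4 °C and sorted by FACS into low and high (top ~1%) gates on anti-HA and streptavidin fluorescence. Polyreactivity labels come from the gate of origin.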

Row | Sequence | polyreactivity (PSR sort gate)
1 | QVQLVESGGGLVQAGGSLRLSCAASGRTFAIYAMGWYRQAPGKEREFVAAISWSGCSTYADSVKGRFTISRDNAKNTVYLQMNSLKPEDTAVYYCAKTILYDCDYWGQGTQVTVSS | low polyreactivity
2 | QVQLVESGGGLVQAGGSLRLSCADSGFIFSAHAMGGYSQAPGKDRELVAAISRTGGSTYYADSVKGRFTISRDNAKNTVYLQMNSLKPEETAGYYGAAYIRYGGLAYDSNYWGQGTQVTVSS | high polyreactivity
3 | QVQLVESGGGLVQAGGSLRLSCAASGRTFGYYAMGWYRQAPGQERELVAAISSGGGTYYADSVKGRFTISRDNAKNTVYVQMNSLKPEDTAVYYCAATGWVYWGQFDYWGEGTQVTVSS | low polyreactivity
4 | QVQLVESGGGLVQAGGSLRLSCAASGTLSSYAMGWYRQAPGKERELVAAISLSGGSTYADSVKGRFTISRDNAKKSVYLQMNSLKPEDTAVYYCAKDWDVEITWSFSIYNYWGQGTHVTVSS | low polyreactivity
5 | QVQLVESGAGLVHAGGSLRLSCAASGNTFIDYAMGWYRQAPGKERELVASITSGGGSTYYADSVKGRFTISRDNEKNTDYLQMNSLKPEDTAVFFFAAERYNSEAIFRSYDYWGQGSQVTVSS | low polyreactivity
6 | QVQLVETGGGLFQAGGSLRISCAASGFIFTLYAMGWYRQAPGKERELVAAINSGGSTDYADSVKGRFTISRDNAKNTVYLQMNSLKPEDTAVYYCAAGNTYAGSDYWGQGTQVTVSS | low polyreactivity
7 | QVQLVESGGGLVQAGGSLRLSCAASGSTFITYAMGWSRQAPGKERELVAAISDSGGDTYYADSVKGRFTISRDYAKNTVYLQMISLNPEDTAVFYCAAEDDRYVYGDMNYWGQGTQVTVSS | low polyreactivity
8 | QVQLVESGGGLVQAGGSLRLSCAASGLIFSRNAMGWNRPAPGKERELVAAISTGGSTYYADSVKGRFTISRDNAKNTVYLQMNRLKPVDTAVYYCAAAPGYIYEYWGQGTQVTVSS | low polyreactivity
9 | QVQLVESGGGLVQAGGRLRLSCAASGRTFNVNVMGWYRQAPGKERELVAAIRYTGGSTYADSVKGRFTISRDNAKNTVYLQMNSLKPEDTALYYCNADTFFPFDHGMDYWGQGTQVTVSS | low polyreactivity
10 | QGQLVESGGGLVQAGGSLRLSCAASGITFYYYAMGWYRQAPGKERELVAAINWSGTSTYYADSVKGRFTISRDNAKNTVYLQMNSLKPEDTAVYYCNAERGRSFWWAYDYWGQGTQVTVSS | low polyreactivity
11 | QVQLVESGGGLVQAGGSLRLSCAASGRTFYVYAMGWYRQAPGKERELVAAITASGGSTYYADSVKGRFTLSRDNAKNTVYLQMNSLKPEDTAVYYCAARVVTLVRGVGYNYWGQGTQVTVSS | high polyreactivity
12 | QVQLVESGGGLVQAGGSLRLSCAASGRTLARNAMGWYRQAPGKEREFVASINGRTTRTYYADSVKGRFTISRDNAKNTVYLQMNSLKPEDTAVYYCAADPPGYVYGKRYYWGQGTQVTVSS | high polyreactivity
13 | QVQLVESGGGLVQAGGSLRLSCAASGSICAYYAMGGYRQAPGTERELVAAISQSGGSTYYADSVKGRVTISRDNAKNTVYLQMNSLKPEDTADYYCAARFRYGYSGYRYDYWGQGTQVNVSS | high polyreactivity
14 | QVQLVESGGGLVQAGGSLRLSCAASGFIFPANAMGWYRQAPGKERQFVAAITRRGGSTYYADSVKGRFTISRDNAKNTVYLKMNSLKPEDTAVYYCAARVLSLYTYYYWGQGTQVTVYS | high polyreactivity
15 | QVQLVESGVGLVQAGGTLRLSCAASGRIFTINAMGWYRQAPGKEREFVAAISGSGGTTYYADSVKGRLTISRDNAKNTVYLQMNSLKPEDTAVYYCAVSQSWYWYYASDYWGQGTQVTVSS | low polyreactivity
16 | QVQLVESGVGLVQAGGRLRLICAASGSTYDSAMGWYIQAPGKERELVASISWSDSSTYYADSVKGRFTISPDNAKNTVYLQMTSLKPEDSAVYYCNAEQGTRDSDYWGQGTQVTVSS | low polyreactivity
17 | QVQLVESGGGLVQAGGSLRLSCAASGSTFNRNAMGWYRQAPGKERELVAAISWRGDSTSYADSVKGRFTISRDNAKNTVYLQMNSLKPEDTAVYYCAAYRVILYYLYDYWGQGTQVTVSS | low polyreactivity
18 | QVQLVESGGGLVQAGGSLRLSCAASGLTFEKYAMGWYRQAPGKERELVAAISQDGGSTYYADSVKGRFTISRDNAKNTVYLQMNSLKPEDTAVYYCAAEDPDSWLPWDLFDYWGQGTQVTVSS | low polyreactivity
19 | QVQLVESGGGLVQAGGRLRLSCAASGFSFSLYGMGWYRQAPGKERELVAAIRSGGSPNYADSVKGRFTISRDNAKNTVYLQMNSLKPEDTAVYYGATDIHSVHNNRDKHDYDYWGQGTQETVSS | low polyreactivity
20 | QVQLVESGGGLVQAGGSLRLSCAASGRTFYRYAMGWYRQAPGKERELVAAITTGGGSTYYADSVKGRFTISRDNAKNTVYLQMNSLKPEDTAVYYCNVYSSYTRRTLGDYWGQGTQVTVSS | high polyreactivity
21 | QVQLLETGGVLVQAGGSLRLSCAASGFIFGINAMGWYRQAPGKERELVATITSGGGTNYADSVKGRFTISRDNAKINVYLQMNSLKPEDSAVYYCNAQIAWATYEGDYWGQGTQVTVSS | low polyreactivity
22 | QVQLVESGGGLVQAGGSLRLSCAASGRIFGCYAMGWYRQAPGKERELVAAISSGGNTKYADSVKGRFTISRDNAKNTVYLQMNSLKPEDTAVYYCAAKFAQPDYRYDYWGQGTQVTVSS | high polyreactivity

Row | Sequence | polyreactivity (PSR sort gate)
23 | QVQLVESGGGLVQAGGSLRLSCAPSGFIFNRNTMGWYRQAPGKERELVAAISFRGTSTYYADSVKGRFTISRDNAKNTVYLQMNSLKPEDTAVYYCNRARILVWSKYGYWGQGTQVNVSS | high polyreactivity
24 | QVQLVESGGCLVQAGGSIRLSCAAYGSNFDNAMGWSRPATGKERELGAAITSGGITNYADSVKGRFTISRDNAKNTVYLQMNSLKPEDTAVYYCNTLSPTQTKFDYWGQGTQVTVTS | low polyreactivity
25 | QVQLVESGGVLVQAGGSLRLSCAASGRIFSSNAMGWYRHAPGKESEFVADISWRTGSTYYADSVKGRFTISRDNAKNTVYLQMNSLKPEDTAVYYCKKRTGSYGYPYYYWGQGTQVTVSS | high polyreactivity
26 | QVQRVDSGGGLVQAGGRLRLSCAASGLNFYLYAMGLYRQAPRKEREFVAAITTSGGSTHYADSVKGRFTISRDNAKNTVYLQMNSLKPEDTAVYYCAADDYFHGPGMEFDFLGQGTQVTVSS | low polyreactivity
27 | QVQLVESGGGLVQAGGSLRLSCAASGRTLFPYAMGWYIQAPGKERELVAAITSRGTSTYYADSVKGRFTISRDIAKNNVYLQMNSLKPEDTAVYYCAKDGWFWGWRFDYCGQGTQVTVSS | low polyreactivity
28 | QVQLVESGGGLVQAGGSLRLSCAASGLKFAHYAMGWYRQAPGKERELVAAISRSGGRTRYADSVKGRFTISRDQAKNTVYLQMNSLKAEDTAVYYCAAVGSVNYDADFDYWGQGTQVTVSS | high polyreactivity
29 | QVQLVESGGGLVQARGSLRLSCAASGRTFRSYAMGWYRQAPGKERELVAVITRSTGNTYYADSVKGRFTISRDNAMNTVYLQMNSLKPEDTAVYYCARQYRRYDYWGQGTQVTVSS | high polyreactivity
30 | QVQLVESGGGLVQAGGSLRLSCASSGFTFYYSMGLYRQAPVKERELVASINYSGGSTYYADSVKGRFTISRDNGKNTLYLQMNSLKAEETGVYYCAVDVRPRGLMYYWGQGTQVTVSS | low polyreactivity
31 | QVQLVESGGGLVQAGGSLRLSCAASGRIFVDNAMGWYRQAPGKERELVATITSTGSTNYADSVKGRFTISRDNAKNTVYLQMNSLKPEDTAVYYCADGYYPYWGQGTQVTVSS | low polyreactivity
32 | QVQLVESGGGLVQAGGSLRLSCAASGRTFAVYAMGWYRQAPGKERELVAAITLGASRTYYADSVKGRFTISRDNAKNTVYLQMNSLKPEDTAVYYCNAVGRRNVDSSLNDYWGQGTQVTVSS | low polyreactivity
33 | QVQLVESGGGLVQAGGSLRLSCAASGSIFPWYTMGWYRQAPGKERELVAAITSSGGGTYYADSVKGRFTISRDNAKNTVYLQMNSLKPEDTAVYYCAAGLDWGPEYEYWGQGTQVTVSS | low polyreactivity
34 | QVQLVESGGGLVQAGGSLRLSCAAYGIIFSYNVMGWYRQAPGKEREYVAAITRSGGSTYYADSVKGRFTISRDNAKNTVYLQMNSLKPEDTAVYYCAATTWSGPSRYYDWGQGTQVTVSS | high polyreactivity
35 | QVQHVESGGGLVQAGGSLRLSCAASGLTSRYYAMGWYRQAPGKERELVAAISSRGGRTYYADSVKGPFTISRDNAKNTVYLQMNSLKPEDTAVYYCNAVRGYSGNLRDYWGQGTQVTVSS | high polyreactivity
36 | QVHLVESGGGLVQAGGSLRLSCAASGSIFGYNTMGWYRQAPGKERELVATISGSGGSSYYADSVKGRFTISRDNAKNTVYLQMNSLKPEDTSVYYCAARAYSRYRRTYDYWGQGTQVTVSS | high polyreactivity
37 | HVQLVESGGGLVQAGGSLRLSCAASGRIFWYYTMGWSRQAPGKERELVASINSDSGTYYADSVKGRFTISRDNAKNTVYLQMNRLKPEDTAVYYCTRDSESDANTFTTSGIDEPYDYWGQGTQVTVSS | low polyreactivity
38 | QVQLVESGGGLVQAGGSLRLSCAASGSTFSYYAMGWYRQAPGKERELVAAITRGGSTYYADSVKGRFTISRDNAKNTVYLQMNSLKPEDTAVYYCATRTWRWGYLHYDYWGQGTQVTVSS | low polyreactivity
39 | QVQRVESGGGLVQAGGSLRLSCAASGKIFGQYAMGRYRQAPGKEREFVAAITWSGGSTYYADSVKGRFTISRDNAKNTVYLQMNSLKPEDTAVYYCAADYGKTHRYDYDYWGQGTQVTVSS | low polyreactivity
40 | QVQLVESGGGLVQAGGSLRLSSAASGSTFTRNGMGWYRQAPGKERELVAVISGSSSSTYYADSVKGRFTISRDNAKNTVYLQMNSLKPEDTAVYYCAARRYYGYAQYYYWGQGTQVTVSS | high polyreactivity
41 | QVQLVESGGGLVQAGGSLRLSCAASGGIFRRYPMGWYRQATGKERELVAAISKRGGSTYYADSVKGRFTISRDNAKNTVYLQMNSLKPEDTAFYYCAKQRGGQPRSSTYYYWGQGTQVTVSS | high polyreactivity
42 | QGQLVESGGGLVQAGGSLRLSCAASGRIFEFNARGWYRQAPGKERELVAANSRSGGSTYYADSVKGRFTISRDKAKNTVYLQMNTQKPEHTAVYYCNAVYHYYPLYYWKYGYWGQGTQVTVSS | low polyreactivity
43 | QVHLVESGGGLVQAGGSLRLSCAASGITFYIYAMGWYRQAPGTERELVAAISWRTGRTYYADSVKGRFTISRDNAKNTVYLQMNSLKPEYTAVYYCAAGVWVAGAFDYWGQGTQVNVSS | high polyreactivity
